From patent US11091546B2, “Optimized PNE-based chimeric receptor T cell switches and uses thereof” (The Scripps Research Institute, priority 2015, dated 2021) come the findings set out here.

One data set deals with Nalm-6^Luc/GFP cells. The data set can be described thus: Nalm-6 Luc/GFP leukemia xenograft. Type of data set: in vivo. Conditions: short-dimeric sCAR-T cells; 0.5 mg/kg every other day from day 6. As for the experimental part: NSG mice were inoculated with CD19^+ Nalm-6^GFP/Luc cells. Six days later, 40×10^6 sCAR-T cells were delivered IV and switch dosing commenced every other day at 0.5 mg/kg for 10 days. Tumor burden was followed by luminescence after injection of luciferin and imaged on an in vivo imaging system (IVIS; PerkinElmer, Waltham, Mass., USA).
Asterisks indicate significance from LCNT Fab group. Data are represented as means±SEM, and statistical significance was calculated using the 2-way ANOVA with Bonferroni's post-test (B & E; shown for final time-point only) or by one-tailed student's t-test (C & F) where *=p<0.05, **=p<0.01 and ***=p<0.001.
NSG mice were inoculated with Nalm-6^GFP/Luc as described in FIG. 28. […] A fourth group consisted of two cohorts (n=3) of mice injected I.V. with sCAR-T cells without (−) LCNT Fab switch. LCNT Fab dosing in the indicated group was carried out daily at 0.5 mg/kg after the initial T cell infusion. Luminescence was measured at 6 h and subsequently every 24 h as indicated. Cohorts were sacrificed for analysis immediately following IVIS imaging. […] Gray lines indicate tumor burden in PBS and sCAR-T cell—LCNT Fab controls. […] Data are represented as means±SEM, and statistical significance was calculated using the one-tailed student's t-test (C & D) where *=p<0.05, **=p<0.01 and ***=p<0.001.
NSG mice were inoculated with Nalm6^GFP/Luc and six days later engrafted with short-dimeric sCAR-T cells as described in FIG. 29. […] Dosing was carried out for 15 d starting at day 6 (corresponding with sCAR-T cell infusion) as indicated by gray shading. Control groups CART-19 and PBS received no switch. The NS group received sCAR-T cells but no switch. Open circles denote the death of individual mice without evidence of tumor burden and may reflect GVHD. Triangles in PBS, NS and q.a.d. group indicate death due to increasing tumor burden. […] (19) indicates CART-19. […] (19) indicates CART-19. […] Triangles indicate the death of individual mice with significant tumor burden. The single mouse death in the 0.05 mg/kg group occurred while tumor burden was decreasing. […] Statistical significance was calculated using the one-tailed student's t-test (B, C & E) where *=p<0.05, **=p<0.01 and ***=p<0.001.
The different sCAR designs were tested in a xenograft model harboring luciferized NALM-6 (CD19+, CD80−, CD86−) cells. 1 mg/kg monovalent switch “A” was administered along with sCAR cells. […] Optimized hinge improved response. Short hinge CARs have faster clearance. Short, dimeric hinge CARs have improved persistence. Tumor burden was visualized with IVIS imaging. Experiments are repeated with a humanized scFv and bivalent switches.
Activity of the switchable CAR-T cell platform in vivo was evaluated via tumor regression in a Nalm-6^Luc/GFP leukemia xenograft model in immunodeficient NOD scid gamma (NSG) mice. These mice without treatment succumb to disease within 21 days. The impact of CAR hinge design on in vivo efficacy was determined using mice inoculated with Nalm-6^Luc/GFP, followed by I.V. injection of long, short, or short-dimeric sCAR-T cells 6 days later. The LCNT Fab was dosed I.V. (0.5 mg/kg) every other day for 10 days and tumor regression was followed by in vivo imaging (IVIS) of the luciferase signal from Nalm-6^Luc/GFP cells (FIG. 29A).
The effect of switch grafting position on the control of tumor burden was determined. As with the previous model, short-dimeric CAR-T cells were injected 6 days after tumor inoculation and mice were treated every other day (starting at day 6) with 0.5 mg/kg LCNT, HCNT, NTBV, LCC1, or HCCT Fab switches (FIG. 29D).
To determine the proliferation and localization of sCAR-T cell cytotoxicity during this time interval, mice were sorted into 5 cohorts per treatment regimen and analyzed at 8, 24, 48, 72, and 96 h after treatment with short-dimeric sCAR-T cells+LCNT Fab switch or with conventional CART-19 and no switch. […]

Another data set concerns RS4;11 (CD19 positive). The format is cell-based, human. Here is the method:
Activity was assessed against NALM-6 (CD19^+), RS4;11 (CD19^+), or RPMI-8226 (CD19^−) (Table 2). The activity of the IgG (FcNull) switch was assessed against RS4;11 (CD19^+), or K562 (CD19^−) (Table 2). The activity of the C-terminal switch was assessed against RS4;11 (CD19^+), or K562 (CD19^−) (Table 4).
(§1) sCAR-T cells were co-cultured (96-well plate round bottom; 20-24h; 37° C.; 5% CO2) with RS4;11 (CD19^+) or K562 (CD19^−) cells at a ratio of 10 sCAR-T cells to 1 RS4;11/K562 cell (110,000 cells in total) in 100 uL of RPMI-1640 supplemented with 5% heat inactivated fetal calf serum (Thermo), 1% penicillin-streptomycin (Gibco), 1% L-Glutamine (Gibco), 1 mM sodium pyruvate (Gibco) and 1% non-essential amino acids (Gibco). After 24 hours, each plate was centrifuged at 400×g for 5 minutes at 4° C. To measure target cell lysis, the intracellular protein lactate dehydrogenase (LDH) was measured in the cytotoxicity assay supernatants from the co-cultured cells using the CytoTox 96® Non-Radioactive Cytotoxicity Assay kit (Promega). To measure the effector responses of the sCART cells in vitro, cytokine levels were measured in the cytotoxicity assay supernatants using the Cytometric Bead Array (CBA) Human Th1/Th2 Cytokine Kit II (BD). […]
The GCN4 CAR design was therefore modified to contain the CD8 hinge region (used in CART-19), which has an extracellular CAR domain of approximately 80 Å, and an IgG4 hinge with an extracellular CAR domain of approximately 15-30 Å. An additional construct was developed where a mutation was introduced into the IgG4 hinge that allows for spontaneous disulphide bridge formation between receptor molecules (IgG4m). […] Briefly, activated PBMC were transduced with lentivirus (SEQ ID: 1) containing the anti-PNE CAR construct (SEQ ID: 180) with the CD8 (SEQ ID: 68), IgG4 (SEQ ID: 70) and IgG4m (SEQ ID: 71) hinge domains.
Monovalent and bivalent combinations of these switches were expressed in mammalian protein expression systems (HEK293 or CHO cells) and purified using protein-G columns. Switches were used in cytotoxicity assays at a dose titration within the range of 10 nM to 0.0001 nM. The activity of each switch combination was tested in vitro in the General cytotoxicity assays where LDH release, cytokine production and sCART cell activation were compared (FIGS. 11A-11C).
CAR-T or target cells were incubated with 1 pM to […] of switch in FACS buffer (PBS, 1% FCS, 2 mM EDTA) for 30 minutes at 4° C. before being washed twice and then incubated with the PE-conjugated goat-anti-human kappa antibody (1:100). Cells were washed two times and analyzed using the Accuri flow cytometer (BD). CAR-T cell activity was determined using the CytoTox 96® Non-Radioactive Cytotoxicity Assay (Promega). CAR-T cells were incubated with target cells in the presence of switch for 20-24 hours at 37° C. in complete RPMI with 5% FCS. At the end of the assay, 30 μL of cell free supernatant was added to 30 μL of the LDH assay reagent in a 96-well plate and incubated for 30 minutes at room temperature in the dark; 30 μL of stop solution was added before the plate was read at OD495.

Another data set relates to RS4;11 cells. The data set can be described thus: Cytokine release (CBA) in cytotoxicity co-culture. Type of data set: cell-based, human. Conditions: 1 nM switch. As for the experimental part:
as §1
CAR-T or target cells were incubated with 1 pM to […] of switch in FACS buffer (PBS, 1% FCS, 2 mM EDTA) for 30 minutes at 4° C. before being washed twice and then incubated with the PE-conjugated goat-anti-human kappa antibody (1:100). Cells were washed two times and analyzed using the Accuri flow cytometer (BD). CAR-T cell activity was determined using the CytoTox 96® Non-Radioactive Cytotoxicity Assay (Promega). […]

In a further data set the test system is MOLM14 cell line. The data set can be described thus: Cytokines in cytotoxicity assay supernatant (CBA Human Th1/Th2 II Kit). The format is cell-based. Set-up: unit not given here. Conditions: duplicates. The source says:
(§2) FIG. 38A illustrates multiple fusion/grafting locations: A=LCNT1 (light chain N terminus version 1), B=HCNT3 (heavy chain N terminus version 3), C=heavy chain C terminus, and D=light chain C terminus). […] Data shown are an average of duplicate samples, and error bars represent SD. Only the NT switches plus the BvCT and By CH1CL1 as references are depicted.
(§3) Monovalent and bivalent combinations of these switches were expressed and tested in cytotoxicity assays at a dose titration within the range of 0.4 nM to 0.0001 nM. […] Data shown are an average of duplicate samples, and error bars represent SD. Only the NT switches plus the BvCT and By CH1CL1 as references are depicted. cytokine secretion was measured.

The subject of the next data set is CD33+ MOLM14 cells. Description: Cytotoxicity assay, sCAR-T cells + anti-CD33 (hP67.6) switches. Also noted: unit not given here. The following applies: duplicates. The format is cell-based.
Text: as §2, §3

Where “and” joins values, the source holds several entries; their conditions need not be identical. Identical values can stand only once. Entries after “also recorded” stand apart in the source; their conditions may differ.

Consider “anti-CD19 Fab HCCT: FMC63 anti-CD19 Fab, peptide on C-terminus of heavy chain (SEQ ID 27 & 34)”, for which the “tumor burden (IVIS), switch graft position comparison” value in the data set on Nalm-6^Luc/GFP cells is given as “little control”. Further, the EC50 in the data set on RS4;11 (CD19 positive) was 0.02 ± 0.0009 nM.
Consider “anti-CD19 Fab NTBV: FMC63 anti-CD19 Fab, peptide on N-terminus of light and heavy chain (SEQ ID 36 & 88)”, for which, in the data set on Nalm-6^Luc/GFP cells, the “tumor burden (IVIS), switch graft position comparison” value is listed as “greatest reduction in tumor burden”. Moreover, the “cytokine production” value with RS4;11 cells (CD8 hinge sCAR-T) is listed as “induced the greatest cytokine production; also recorded: induced the greatest IL-2 production”. The “increase in IL-2 production” value in the data set on RS4;11 cells (CD8 sCAR-T cells) is given as 50%.
With “anti-CD19 Fab WT: FMC63 anti-CD19 Fab with no grafted peptide (SEQ ID 27 & 29) [reference compound]”, the “cytotoxicity” value with RS4;11 (CD19 positive) is on record as “did not induce significant cytotoxicity”.
“anti-CD19 IgG WT: FMC63 anti-CD19 IgG with no grafted peptide (SEQ ID 27 & 28) [reference compound]”: the “cytotoxicity” value in the data set with RS4;11 (CD19 positive) was “did not induce significant cytotoxicity”.

B1: hP67.6 HCNT: anti-CD33 hP67.6 Fab, GCN4 on heavy chain N-terminus, rigid linker SEQ ID 45 (SEQ ID 231 & 220) (protein)
light: DIQLTQSPSTLSASVGDRVTITCRASESLDNYGIRFLTWFQQKPGKAPKLLMYAASNQGSGVPSRFSGSGSGTEFTLTISSLQPDDFATYYCQQTKEVPWSFGQGTKVEVKRTVAAPSVFIFPPSDEQLKSGTASVVCLLNNFYPREAKVQWKVDNALQSGNSQESVTEQDSKDSTYSLSSTLTLSKADYEKHKVYACEVTHQGLSSPVTKSFNRGEC
heavy: NYHLENEVARLKKLLVGEAAAKEAAAKAEVQLVQSGAEVKKPGSSVKVSCKASGYTITDSNIHWVRQAPGQSLEWIGYIYPYNGGTDYNQKFKNRATLTVDNPTNTAYMELSSLRSEDTAFYYCVNGNPWLAYWGQGTLVTVSSARTKGPSVFPLAPSSKSTSGGTAALGCLVKDYFPEPVTVSWNSGALTSGVHTFPAVLQSSGLYSLSSVVTVPSSSLGTQTYICNVNHKPSNTKVDKKVEPKSC
modifications: GCN4 on heavy chain N-terminus; Made in lab - CD33 (hP67.6) LCWT; Made in Lab - CD33 (hP67.6) HCNT1
As for B1, in the data set on MOLM14 cell line, the “IFNg in supernatant (FIG. 38H)” value is 1037.59 and 876.36. Further, the “Il-2 in supernatant (FIG. 38H)” value in the data set on MOLM14 cell line was 861.13 and 653. Also, the “TNFa in supernatant (FIG. 38H)” value in the data set with MOLM14 cell line was 114.13 and 87.74. Further, the “cytotoxicity (FIG. 38G)” value in the data set with CD33+ MOLM14 cells (switch 0.1 pM) was 0; in the data set on CD33+ MOLM14 cells (switch 3.2 pM), 10.3 and 8.3; in the data set on CD33+ MOLM14 cells (switch 16 pM), 47.8 and 45.5; in the data set on CD33+ MOLM14 cells (switch 80 pM) it was 65 and 64.4; in the data set with CD33+ MOLM14 cells (switch 400 pM), 69.4 and 70.2.
